One test concerns PlcR. The following applies: SAXS, 2QFC, ref Declerck et al., 2007 (Suppl. ref 7); cited from earlier work.
Test [1] concerns the target PhrF* peptide (Bacillus subtilis) (UniProt P71001). The following applies: cited from earlier work.
The target of test [2] is Rap_(pLS20) (Bacillus subtilis plasmid pLS20). As to the kind of experiment: SEC; Superdex 200 increase 5/150 GL, 500 mM NaCl, 20 mM TRIS pH 8, 0.2 ml/min; proteins alone (1 mg/ml) and mixtures at 1:2, 1:4, 1:1 and 2:1 (Rco:Rap) incubated 30 min on ice; total protein 0.75–1.25 mg/ml; Phr* at 5:1 over Rap where added. Background: SEC sorts molecules by how far they enter the pores of the column.

Test [3] shares this target. As to the kind of experiment: AUC; sedimentation velocity, 4.5 μM Rap_(pLS20) with Phr*_(pLS20) at 4.5 μM or 15 μM; 20 mM Tris, 250 mM NaCl, 10 mM MgCl2, 1 mM EDTA, 0.1 mM β-mercaptoethanol, 1% glycerol, pH 7.4.
For test [4] the target is unchanged. As to the kind of experiment: AUC; sedimentation equilibrium, Rap_(pLS20) (0–15 μM) with Phr*_(pLS20) at 1:3 stoichiometry (Rap:Phr*); same conditions as the SV experiments.
The target is the same in test [5]. As to the kind of experiment: SAXS; Rap_(pLS20) at 0.5 to 5 mg/ml with 5-fold molar Phr*_(pLS20); 15 mM HEPES pH 7.5, 150 mM NaCl, 1 mM DTT; 293 K; volume fractions of dimer and foot-2-foot tetramer by OLIGOMER
For test [6] the target is unchanged. As to the kind of experiment: SAXS; apo Rap_(pLS20) at 0.5 to 5 mg/ml (11.3–113 μM); 15 mM HEPES pH 7.5, 150 mM NaCl, 1 mM DTT; 293 K; volume fractions of dimer and foot-2-foot tetramer by OLIGOMER
For test [7] the target is unchanged. In words: AUC; sedimentation equilibrium, apo Rap_(pLS20) at 4.5 to 25 μM; same conditions as the SV experiments; 7000 to 10 000 rpm.
Test [8] shares this target. In words: AUC; sedimentation velocity, apo Rap_(pLS20) at 4.5 and 25 μM; 20 mM Tris, 250 mM NaCl, 10 mM MgCl2, 1 mM EDTA, 0.1 mM β-mercaptoethanol, 1% glycerol, pH 7.4; 48 000 rpm.
For test [9], the target named is Rco_(pLS20) (Bacillus subtilis plasmid pLS20). In words: SEC; Superdex 200 increase 5/150 GL, 500 mM NaCl, 20 mM TRIS pH 8, 0.2 ml/min; proteins alone (1 mg/ml) and mixtures at 1:2, 1:4, 1:1 and 2:1 (Rco:Rap) incubated 30 min on ice; total protein 0.75–1.25 mg/ml; Phr* at 5:1 over Rap where added.
The next test addresses NprR. The following applies: NprR and its cognate peptide NprX; cited from earlier work.
For test [10], the target named is Rap_(pLS20) (Bacillus subtilis plasmid pLS20). As to the kind of experiment: fluorescence polarisation; equilibrium competition: native Phr*_(pLS20) 0.6–1250 μM against 10 μM Rap_(pLS20) and 50 nM 6-FAM-Phr*_(pLS20); 20 mM Tris pH 7.5, 150 mM NaCl, 1 mM DTT, 0.01% Triton X-100; 25°C. On the technique in general: Polarisation of emitted light reports the rotation of a fluorescent probe.

For the molecule LPFEF [PapR], in the test on PlcR, the “oligomerization state of PlcR with peptide” value was “tetramers”.

With RapF (from UniProt P71002), the Kd (as a rule, the constant that tells how readily two partners part at equilibrium) in test [1] is 3.1 µM.

As to Rap_(pLS20) (natural protein), the stoichiometry N (usually a count of units in the complex or per binding partner) in test [2] was determined as 2. Moreover, in [3], the stoichiometry N came to 4. The stoichiometry N in [4] turned out to be 4. Moreover, in test [5], the percent tetramers above 2.5 mg/ml (57.7 μM) with Phr* (pLS20) was 100% and the percent tetramers at 0.5 mg/ml (11.3 μM) with Phr* (pLS20) was 75%. In test [6], this molecule registered a dimer fraction at 0.5 mg/ml (11.3 μM) of 0.78, a dimer fraction at 5 mg/ml (0.11 mM) of 0.48, a tetramer fraction at 0.5 mg/ml (11.3 μM) of 0.22 and a tetramer fraction at 5 mg/ml (0.11 mM) of 0.52. The same molecule came in with a stoichiometry N in test [7] of 2. In addition, in test [8], the percent as a single species (dimer) at 4.5 μM was more than 96%, the percent tetramers at 4.5 μM was 1.1%, the percent tetramers at 25 μM was determined as 3.6% and the stoichiometry N came to 2.

With Rco_(pLS20) (natural protein), the stoichiometry N in test [9] is 4.

On to “SSKPDIVG [NprX, cognate peptide of NprR, eight amino acids (SSKPDIVG)]”, for which the Kd at NprR was 0.03 µM.

As to QKGMY [Phr*_(pLS20) peptide (QKGMY)], in test [10], the IC50 (usually the point on the concentration scale where inhibition reaches its midpoint) worked out at 26.7 µM and the dissociation constant (Kd) came to 7.42 µM.

Values taken from PMC7430634, “Inactivation of the dimeric RappLS20 anti-repressor of the conjugation operon is mediated by peptide-induced tetramerization” (Nucleic Acids Research, 2020).
